Substitutions are numbered along the chain they refer to. Names may count otherwise. “And” between values parts separate entries of the source, which are not always exact repeats. Equal entries are not always repeated. Where two headings read alike, the source gives them in different places. One block for each binder: values may come before it.
Legend:
Experiment in all cases: SPR, 25C
IL-12RB2-hFc [1] = target: T1, IL-12RB2-hFc (human, UniProt Q99665)
T1 chain: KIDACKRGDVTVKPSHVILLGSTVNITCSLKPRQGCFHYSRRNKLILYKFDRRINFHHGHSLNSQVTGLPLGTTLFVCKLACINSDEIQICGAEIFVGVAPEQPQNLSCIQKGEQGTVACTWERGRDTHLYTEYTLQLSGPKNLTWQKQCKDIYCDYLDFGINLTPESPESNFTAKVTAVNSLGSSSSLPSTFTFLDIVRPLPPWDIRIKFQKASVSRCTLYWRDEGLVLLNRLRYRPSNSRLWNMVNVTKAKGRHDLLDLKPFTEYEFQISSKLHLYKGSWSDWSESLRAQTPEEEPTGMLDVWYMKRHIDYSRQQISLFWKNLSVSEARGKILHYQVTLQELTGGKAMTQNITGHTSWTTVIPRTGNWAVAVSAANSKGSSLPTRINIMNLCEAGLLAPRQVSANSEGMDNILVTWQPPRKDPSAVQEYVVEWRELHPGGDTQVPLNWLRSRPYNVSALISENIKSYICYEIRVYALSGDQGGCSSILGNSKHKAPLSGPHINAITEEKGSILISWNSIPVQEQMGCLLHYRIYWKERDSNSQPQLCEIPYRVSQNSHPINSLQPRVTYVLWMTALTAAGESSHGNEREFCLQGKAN

IL-12RB1-hFc [2] = target: T2, IL-12RB1-hFc (human, UniProt P42701)
IL-12RB1-hFc [3] = target: T2, IL-12RB1-hFc; remark: listed apart in the source
IL-12RB2-hFc [4] = target: T1, IL-12RB2-hFc

B2: IL-12p70 K259Y (protein)
chain 1: MIWELKKDVYVVELDWYPDAPGEMVVLTCDTPEEDGITWTLDQSSEVLGSGKTLTIQVKEFGDAGQYTCHKGGEVLSHSLLLLHKKEDGIWSTDILKDQKEPKNKTFLRCEAKNYSGRFTCWWLTTISTDLTFSVKSSRGSSDPQGVTCGAATLSAERVRGDNKEYEYSVECQEDSACPAAEESLPIEVMVDAVHKLKYENYTSSFFIRDIIKPDPPKNLQLKPLKNSRQVEVSWEYPDTWSTPHSYFSLTFSVQVQGYSKREKKDRVFTDKTSATVICRKNASISVRAQDRYYSSSWSEWASVPCSGGGSHHHHHH
chain 2: MRNLPVATPDPGMFPSLHHSQNLLRAVSNMLQKARQTLEFYPCTSEEIDHEDITKDKTSTVEACLPLELTKNESCLNSRETSFITNGSSLASRKTSFMMALCLSSIYEDLKMYQVEFKTMNAKLLMDPKRQIFLDQNMLAVIDELMQALNFNSETVPQKSSLEEPDFYKTKIKLCILLHAFRIRAVTIDRVMSYLNAS
Kd (IL-12RB1-hFc [3]): 870 pM
Kd (IL-12RB2-hFc [1]): 1100 pM
Kd (IL-12RB2-hFc [4]): 4000 pM
Kd (IL-12RB1-hFc [2]): 80 pM

B3: IL-12p70 D94K K196E (protein)
chain 1: B2 chain 1 with D94K, K196E, Y259K
chain 2: B2 chain 2
Kd (IL-12RB2-hFc [4]): 2300 pM

B6: IL-12p70 Y17A (protein)
chain 1: B2 chain 1 with Y17A, Y259K
chain 2: B2 chain 2
Kd (IL-12RB1-hFc [2]): 70 pM

B9: IL-12p70 W16A D94K K196E (protein)
chain 1: B2 chain 1 with W16A, D94K, K196E, Y259K
chain 2: B2 chain 2
Kd (IL-12RB2-hFc [4]): 2300 pM

B10: IL-12p70 K259Y K265Y (protein)
chain 1: B2 chain 1 with K265Y
chain 2: B2 chain 2
Kd (IL-12RB1-hFc [3]): 1400 pM
Kd (IL-12RB2-hFc [4]): 7000 pM

B11: IL-12p70 W91A (protein)
chain 1: B2 chain 1 with W91A, Y259K
chain 2: B2 chain 2
Kd (IL-12RB2-hFc [1]): 530 pM
Kd (IL-12RB1-hFc [2]): 70 pM

B13: IL-12p70 K59A (protein)
chain 1: B2 chain 1 with K59A, Y259K
chain 2: B2 chain 2
Kd (IL-12RB2-hFc [1]): 2100 pM
Kd (IL-12RB1-hFc [2]): 70 pM

B14: IL-12p70 W16A D94K K196E L197A (protein)
chain 1: B2 chain 1 with W16A, D94K, K196E, L197A, Y259K
chain 2: B2 chain 2
Kd (IL-12RB2-hFc [4]): 3000 pM

B16: IL-12p70 K105E K265Y (protein)
chain 1: B2 chain 1 with K105E, Y259K, K265Y
chain 2: B2 chain 2
Kd (IL-12RB1-hFc [3]): 1100 pM
Kd (IL-12RB2-hFc [4]): 1600 pM

B17: IL-12p70 K105E K259Y K265Y (protein)
chain 1: B2 chain 1 with K105E, K265Y
chain 2: B2 chain 2
Kd (IL-12RB1-hFc [3]): 1800 pM
Kd (IL-12RB2-hFc [4]): 4000 pM

B20: IL-12p70 E46A (protein)
chain 1: B2 chain 1 with E46A, Y259K
chain 2: B2 chain 2
Kd (IL-12RB1-hFc [2]): 60 pM

B21: IL-12p70 H195A (protein)
chain 1: B2 chain 1 with H195A, Y259K
chain 2: B2 chain 2
Kd (IL-12RB2-hFc [1]): 540 pM
Kd (IL-12RB1-hFc [2]): 130 pM

B22: IL-12p70 D94A (protein)
chain 1: B2 chain 1 with D94A, Y259K
chain 2: B2 chain 2
Kd (IL-12RB2-hFc [1]): 430 pM
Kd (IL-12RB1-hFc [2]): 690 pM

B23: IL-12p70 W16A D94K (protein)
chain 1: B2 chain 1 with W16A, D94K, Y259K
chain 2: B2 chain 2
Kd (IL-12RB2-hFc [4]): 2400 pM

B24: IL-12p70 E87K,K196E (protein)
chain 1: B2 chain 1 with E87K, K196E, Y259K
chain 2: B2 chain 2
Kd (IL-12RB2-hFc [1]): 490 pM
Kd (IL-12RB1-hFc [2]): 240 pM

B25: IL-12p70 W16A K196E (protein)
chain 1: B2 chain 1 with W16A, K196E, Y259K
chain 2: B2 chain 2
Kd (IL-12RB2-hFc [4]): 2800 pM

B27: IL-12p70 W16A D94K K196E K265Y (protein)
chain 1: B2 chain 1 with W16A, D94K, K196E, Y259K, K265Y
chain 2: B2 chain 2
Kd (IL-12RB2-hFc [4]): 4600 pM

B28: IL-12p70 K103E (protein)
chain 1: B2 chain 1 with K103E, Y259K
chain 2: B2 chain 2
Kd (IL-12RB2-hFc [1]): 340 pM
Kd (IL-12RB1-hFc [2]): 110 pM

B30: IL-12p70 K59E (protein)
chain 1: B2 chain 1 with K59E, Y259K
chain 2: B2 chain 2
Kd (IL-12RB2-hFc [1]): 490 pM
Kd (IL-12RB1-hFc [2]): 70 pM

B33: IL-12p70 W16A D94K K196E K259Y (protein)
chain 1: B2 chain 1 with W16A, D94K, K196E
chain 2: B2 chain 2
Kd (IL-12RB2-hFc [4]): 1900 pM

B34: IL-12p70 K265Y (protein)
chain 1: B2 chain 1 with Y259K, K265Y
chain 2: B2 chain 2
Kd (IL-12RB1-hFc [3]): 510 pM
Kd (IL-12RB2-hFc [1]): 1600 pM
Kd (IL-12RB2-hFc [4]): 4900 pM
Kd (IL-12RB1-hFc [2]): 110 pM

B35: IL-12p70 P21A (protein)
chain 1: B2 chain 1 with P21A, Y259K
chain 2: B2 chain 2
Kd (IL-12RB1-hFc [2]): 60 pM

Other lines, results leading:

Kd (IL-12RB2-hFc [1]): 350 pM
Kd (IL-12RB1-hFc [2]): 60 pM
B1: IL-12p70 I90A (protein)
chain 1: B2 chain 1 with I90A, Y259K
chain 2: B2 chain 2

Kd (IL-12RB2-hFc [1]): 330 pM
Kd (IL-12RB1-hFc [2]): 40 pM
B4: IL-12p70 K103A (protein)
chain 1: B2 chain 1 with K103A, Y259K
chain 2: B2 chain 2

Kd (IL-12RB1-hFc [2]): 60 pM
B5: IL-12p70 H195E (protein)
chain 1: B2 chain 1 with H195E, Y259K
chain 2: B2 chain 2

Kd (IL-12RB2-hFc [1]): 390 pM
Kd (IL-12RB1-hFc [2]): 50 pM
B7: IL-12p70 N104A (protein)
chain 1: B2 chain 1 with N104A, Y259K
chain 2: B2 chain 2

Kd (IL-12RB2-hFc [1]): 500 pM
Kd (IL-12RB1-hFc [2]): 40 pM
B8: IL-12p70 N201A (protein)
chain 1: B2 chain 1 with N201A, Y259K
chain 2: B2 chain 2

Kd (IL-12RB1-hFc [3]): 300 pM and 110 pM
Kd (IL-12RB2-hFc [1]): 750 pM and 340 pM
Kd (IL-12RB2-hFc [4]): 2500 pM and 2400 pM
Kd (IL-12RB1-hFc [2]): 40 pM
B12: IL-12p70 p40-HIS6_C253S / p35_C16S_C89S (protein)
chain 1: B2 chain 1 with Y259K
chain 2: B2 chain 2

Kd (IL-12RB2-hFc [1]): 340 pM
Kd (IL-12RB1-hFc [2]): 60 pM
B15: IL-12p70 K105A (protein)
chain 1: B2 chain 1 with K105A, Y259K
chain 2: B2 chain 2

Kd (IL-12RB2-hFc [1]): 380 pM
Kd (IL-12RB1-hFc [2]): 30 pM
B18: IL-12p70 D88A (protein)
chain 1: B2 chain 1 with D88A, Y259K
chain 2: B2 chain 2

Kd (IL-12RB2-hFc [1]): 450 pM
Kd (IL-12RB1-hFc [2]): 30 pM
B19: IL-12p70 D42K (protein)
chain 1: B2 chain 1 with D42K, Y259K
chain 2: B2 chain 2

Kd (IL-12RB2-hFc [1]): 310 pM
Kd (IL-12RB1-hFc [2]): 20 pM
B26: IL-12p70 D88K (protein)
chain 1: B2 chain 1 with D88K, Y259K
chain 2: B2 chain 2

Kd (IL-12RB1-hFc [2]): 40 pM
B29: IL-12p70 S45A (protein)
chain 1: B2 chain 1 with S45A, Y259K
chain 2: B2 chain 2

Kd (IL-12RB2-hFc [1]): 580 pM
Kd (IL-12RB1-hFc [2]): 40 pM
B31: IL-12p70 K196A (protein)
chain 1: B2 chain 1 with K196A, Y259K
chain 2: B2 chain 2

Kd (IL-12RB2-hFc [1]): 500 pM
Kd (IL-12RB1-hFc [2]): 40 pM
B32: IL-12p70 T203A (protein)
chain 1: B2 chain 1 with T203A, Y259K
chain 2: B2 chain 2

Kd (IL-12RB2-hFc [1]): 520 pM
Kd (IL-12RB1-hFc [2]): 40 pM
B36: IL-12p70 E46K (protein)
chain 1: B2 chain 1 with E46K, Y259K
chain 2: B2 chain 2

— patent US20260295010 (published 2026)
